The values below come from publication PMC12562645, “Enhancement of Activity of Thermophilic Inorganic Pyrophosphatase Ton1914 via Site-Directed Mutagenesis” (Biomolecules, 2025).

Changes are numbered by the printed parent chain. Names and notes keep the numbering of the source.

Substrate in the data set: O=P(O)(O)OP(=O)(O)O
The data set can be described thus: purified protein. It is filed as biochemical, Thermococcus onnurineus. The following applies: Mg2+, 90 °C, pH 9, pyrophosphate 0.05–1.0 mM, unit mM doubtful (M would fit the substrate range).

B1: Ton1914 (Thermococcus onnurineus NA1) (protein)
chain: MNPFHELEPGPEVPEVVYALIEIPKGSRNKYELDKKTGLLKLDRVLYSPFFYPVDYGIIPQTWYDDGDPFDIMVIMREPVYPLTIVEARPIGIMKMEDSGDKDWKVLAVPVEDPYFNDWKDIDDVPKAFLDEIAHFFQRYKELQGKVTTVEGWGTAEEAKREILRAIEMYKEKFGKKE
notes: pET28a-Ton1914 expressed in E. coli BL21(DE3); heat-treated (80 °C) supernatant concentrated by ultrafiltration
As for B1, the Km is given as 3.03 ± 0.18 × 10^−4 mM.

B2: Ton1914 (Thermococcus onnurineus NA1; E97Y/L42F) (protein)
chain: B1 chain with L42F, E97Y
notes: as for B1
As to B2, the Km is 8.49 ± 0.30 × 10^−4 mM.

B3: Ton1914 (Thermococcus onnurineus NA1; E97Y) (protein)
chain: B1 chain with E97Y
notes: as for B1
Regarding B3, the Km is 5.94 ± 0.14 × 10^−4 mM.

B4: Ton1914 (Thermococcus onnurineus NA1; D101K/L42F) (protein)
chain: B1 chain with L42F, D101K
notes: as for B1
For B4, the Km was 6.34 ± 0.82 × 10^−4 mM.

B5: Ton1914 (Thermococcus onnurineus NA1; L42F) (protein)
chain: B1 chain with L42F
notes: as for B1
As to B5, the Km is 3.18 ± 0.05 × 10^−4 mM.

B6: Ton1914 (Thermococcus onnurineus NA1; D101K/E97Y) (protein)
chain: B1 chain with E97Y, D101K
notes: as for B1
Take B6: the Km was 3.48 ± 0.27 × 10^−4 mM.

B7: Ton1914 (Thermococcus onnurineus NA1; D101K) (protein)
chain: B1 chain with D101K
notes: as for B1
Consider B7, for which the Km is listed as 1.03 ± 0.04 × 10^−4 mM.
